Measured values reported in the supplement of paper PMC7125110.
± gives the standard error. For some of these results: This sample holds only a part of the variants without activity.

B1: glmS ribozyme (parent)
chain: AUAAAAGCGCCAGAACUACAGAAAUGUAGUUGACGAGGAGGAGGUUUAUCGAAUUUUCGGCGGAUGCCUCCAAA

What was measured:
Conditions in all cases: with glucosamine-6-phosphate
glucosamine-6-phosphate [1] = variants of: B1; test: kcat; higher = faster cleavage; RNA array
Summary of the method: (§1)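 Glucosamine-6-phosphate in HEPES/KCl/Mg(OAc)2 buffer, at 40 μM to 10 mM, was flowed over barcoded ribozyme variants transcribed in situ by E. coli RNA polymerase on sequenced MiSeq chips. Tracking was through a hybridised Cy3 probe at 37 °C. kobs, kcat and KM came from exponential decay fits and weighted Michaelis–Menten fits of normalised per-tile medians.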

glucosamine-6-phosphate [2] = variants of: B1; test: self-cleavage kobs at 40 uM GlcN6P; higher = faster cleavage; RNA array
Summary of the method: as §1

glucosamine-6-phosphate [3] = variants of: B1; test: self-cleavage kobs at 640 uM GlcN6P; higher = faster cleavage; RNA array
Summary of the method: as §1

glucosamine-6-phosphate [4] = variants of: B1; test: self-cleavage kobs at 10000 uM GlcN6P; higher = faster cleavage; RNA array
Summary of the method: as §1

glucosamine-6-phosphate [5] = variants of: B1; test: self-cleavage kobs at 2500 uM GlcN6P; higher = faster cleavage; RNA array
Summary of the method: as §1

glucosamine-6-phosphate [6] = variants of: B1; test: KM; higher = weaker cofactor use; RNA array
Summary of the method: as §1

glucosamine-6-phosphate [7] = variants of: B1; test: self-cleavage kobs at 160 uM GlcN6P; higher = faster cleavage; RNA array
Summary of the method: as §1

Row | Variant | kcat (glucosamine-6-phosphate [1]) [s⁻¹] | self-cleavage kobs at 40 uM GlcN6P (glucosamine-6-phosphate [2]) [s⁻¹] | self-cleavage kobs at 640 uM GlcN6P (glucosamine-6-phosphate [3]) [s⁻¹] | self-cleavage kobs at 10000 uM GlcN6P (glucosamine-6-phosphate [4]) [s⁻¹] | self-cleavage kobs at 2500 uM GlcN6P (glucosamine-6-phosphate [5]) [s⁻¹] | KM (glucosamine-6-phosphate [6]) [µM] | self-cleavage kobs at 160 uM GlcN6P (glucosamine-6-phosphate [7]) [s⁻¹]
1 | U31A A42G U47A | 0.00933 ± 0.0047 | 0.000345 ± 9.2e-05 | 0.00346 ± 0.001 | 0.00844 ± 0.0039 |  |  | 
2 | U31C U57A | 2.49e-05 ± 2.1e-06 |  |  |  | 2.32e-05 ± 9.8e-06 |  | 
3 | U30G C68G | 3.09e-05 ± 2.2e-06 |  |  | 2.71e-05 ± 1.3e-05 | 3.26e-05 ± 1.2e-05 | 120 ± 57 | 
4 | U31A G32C | 0.000234 ± 1.1e-05 |  | 5.55e-05 ± 1.8e-05 | 0.000194 ± 2.1e-05 | 0.000141 ± 3e-05 | 1950 ± 290 | 
5 | U31G G38U | < 1e-05 |  |  |  |  |  | 
6 | U30G G41U | 0.000172 ± 2.3e-05 |  | 0.000153 ± 3.3e-05 | 0.000154 ± 2.4e-05 | 0.000149 ± 2.6e-05 | 440 ± 190 | 3.73e-05 ± 1.4e-05
7 | U31G G66C | 0.000137 ± 2.5e-05 |  | 4.89e-05 ± 1.1e-05 | 0.000146 ± 3.1e-05 | 7.89e-05 ± 1.3e-05 | 1360 ± 590 | 
8 | U30G U69G | 3.4e-05 ± 1.2e-05 |  | 6.34e-05 ± 1.3e-05 |  | 3.55e-05 ± 8.8e-06 |  | 5.83e-05 ± 1.7e-05
9 | U31A G41C | 0.000118 ± 1.6e-05 |  | 6.84e-05 ± 1.6e-05 |  | 9.73e-05 ± 2.2e-05 | 501 ± 200 | 
10 | U31G C58A | 0.000195 ± 2.1e-05 |  | 5.23e-05 ± 1.2e-05 | 0.000163 ± 1.7e-05 | 9.47e-05 ± 1.4e-05 | 2240 ± 600 | 
11 | U31G G41C | 0.000172 ± 3.9e-05 |  |  | 0.000139 ± 2.2e-05 | 0.000167 ± 3.6e-05 |  | 
12 | U31G G32C | 0.000616 ± 8.5e-05 |  | 6.65e-05 ± 1.1e-05 | 0.000405 ± 8.2e-05 | 0.000186 ± 2.9e-05 | 5520 ± 1100 | 
13 | U31C G41U | 0.000175 ± 1.4e-05 |  | 5.36e-05 ± 1e-05 | 0.000153 ± 2e-05 | 0.000117 ± 1.7e-05 | 1350 ± 260 | 
14 | U31G C67A | 0.00185 ± 0.00043 | 0.000107 ± 1.8e-05 | 0.000858 ± 0.00013 | 0.00286 ± 0.00065 | 0.00123 ± 0.00024 | 740 ± 270 | 0.000285 ± 6.9e-05
15 | U31G C67U | 0.00291 ± 0.00094 | 0.000124 ± 9.4e-06 | 0.00082 ± 0.00012 | 0.00391 ± 0.00047 | 0.00179 ± 0.00027 | 1040 ± 460 | 0.000329 ± 6.4e-05
16 | U31G C34A G60U C67A | < 1e-05 |  |  |  |  |  | 

Row | Variant | kcat (glucosamine-6-phosphate [1]) [s⁻¹] | self-cleavage kobs at 40 uM GlcN6P (glucosamine-6-phosphate [2]) [s⁻¹] | self-cleavage kobs at 640 uM GlcN6P (glucosamine-6-phosphate [3]) [s⁻¹] | self-cleavage kobs at 10000 uM GlcN6P (glucosamine-6-phosphate [4]) [s⁻¹] | self-cleavage kobs at 2500 uM GlcN6P (glucosamine-6-phosphate [5]) [s⁻¹] | KM (glucosamine-6-phosphate [6]) [µM] | self-cleavage kobs at 160 uM GlcN6P (glucosamine-6-phosphate [7]) [s⁻¹]
17 | U31C U46A | 0.000286 ± 7.3e-06 |  | 6.31e-05 ± 9.4e-06 | 0.000234 ± 3.3e-05 | 0.000152 ± 2.9e-05 | 2230 ± 110 | 
18 | U31C U46G | 0.000788 ± 0.00029 |  | 0.000198 ± 3.6e-05 | 0.000568 ± 7.8e-05 | 0.000722 ± 0.00013 |  | 
19 | U31A A52G | 0.00103 ± 0.00022 |  | 0.000142 ± 2.3e-05 | 0.000752 ± 7.9e-05 | 0.000305 ± 4.3e-05 | 4620 ± 1600 | 4.63e-05 ± 1.3e-05
20 | U31G A33C | 3.39e-05 ± 1.6e-06 |  |  | 2.4e-05 ± 8.6e-06 |  | 4180 ± 650 | 
21 | U31G A33U | 0.000102 ± 8.8e-06 |  |  | 7.23e-05 ± 1.2e-05 | 3.73e-05 ± 1.2e-05 | 4090 ± 910 | 
22 | U31A G66U | 0.000713 ± 5.1e-05 | 2.99e-05 ± 1.3e-05 | 0.000206 ± 3.9e-05 | 0.000631 ± 7.6e-05 | 0.000466 ± 7.9e-05 | 1380 ± 190 | 7.61e-05 ± 1.5e-05
23 | U31A G63U U69G | 3.2e-05 ± 9.9e-06 |  |  |  |  |  | 
24 | U31G G40A | 0.00279 ± 0.00072 | 0.00011 ± 2.4e-05 | 0.000715 ± 0.00014 | 0.00301 ± 0.00099 | 0.0018 ± 0.00027 | 1460 ± 560 | 0.000269 ± 5.2e-05
25 | U31G G40U | 0.00241 ± 0.0003 | 3.85e-05 ± 7.6e-06 | 0.000515 ± 5.8e-05 | 0.00183 ± 0.0002 | 0.00119 ± 0.00013 | 2730 ± 500 | 0.000115 ± 1.6e-05
26 | U31C A53G C70U | 0.0038 ± 0.00074 | 0.000212 ± 4.6e-05 | 0.00265 ± 0.00055 | 0.00339 ± 0.00081 | 0.00272 ± 0.00079 | 620 ± 200 | 
27 | U31C G32A C58A U65G | 4.59e-05 ± 1e-06 |  |  | 3.72e-05 ± 1.4e-05 |  | 2320 ± 190 | 
28 | U31C A39U | 0.00686 ± 0.0022 | 7.06e-05 ± 8.4e-06 | 0.000692 ± 6.8e-05 | 0.00432 ± 0.00036 | 0.00175 ± 0.00023 | 6250 ± 2600 | 0.000146 ± 1.5e-05
29 | U31A C68A | 2.86e-05 ± 9.3e-06 | < 1e-05 |  |  | 4.06e-05 ± 1.6e-05 |  | 
30 | U31A C68U | 0.00143 ± 0.00043 |  | 0.000477 ± 9.5e-05 | 0.00105 ± 0.00019 | 0.000776 ± 0.00018 | 2740 ± 1200 | 6.73e-05 ± 1.4e-05
31 | U31C A53U | 0.00494 ± 0.0007 | 9.39e-05 ± 8.5e-06 | 0.000925 ± 8.8e-05 | 0.00421 ± 0.00036 | 0.00236 ± 0.00022 | 2460 ± 510 | 0.000269 ± 4.7e-05
32 | U31C A53G | 0.00573 ± 0.0015 | 0.000158 ± 1.8e-05 | 0.00167 ± 0.00042 | 0.00495 ± 0.00059 | 0.00309 ± 0.00042 | 1960 ± 740 | 0.000305 ± 5.6e-05
